For twelve molecules, Kd, koff and kon results are on record in patent US20260193326A1 (published 2026).

What all share (assay): SPR, AAV amine-coupled to CM5 chip;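 also: nanobodies flowed as analyte at seven concentrations spanning 1–100 nM over immobilized AAV (500–800 RU), kinetic constants derived by fitting the binding curves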
Background: SPR reads the build-up and loss of mass on a sensor chip optically.

One experiment deals with T1, AAV8 (adeno-associated virus 8).
T1 construct: also called adeno-associated virus serotype 8

Another experiment has as its target T2, AAV5 (adeno-associated virus 5).
T2 construct: also called adeno-associated virus serotype 5

The target in the next experiment is T3, AAV9 (adeno-associated virus 9).
T3 construct: also called adeno-associated virus serotype 9

Description for AAV5: (§1) AAV was amine-coupled to a CM5 sensor chip at a density of 500-800 response units (RU). Nanobodies were injected at seven concentrations (1-100 nM) with a flow rate of 45 μL/min, and chip regeneration was performed using glycine-HCl (pH 1.5). Binding curves at different nanobody concentrations were used to calculate kinetic parameters (Kₐ, Kd, KD) (Table 2 and FIG. 2).
Description for AAV8: as §1
Description for AAV9: as §1

B1: A4-065 (VHH)
VHH: VQLQESGGGLVQSGGSLRLSCAASGRNFSLNTVGWYRQAPGKQRELVATVTRGGSTNYAGSVKGRFTISRDNAKNTVYLQMNSLRPEDTAVYYCHVDEVRESSWTTSNLWGQGTQVTVSS
For B1, the Kd (commonly the equilibrium constant for the complex coming apart) with AAV8 was found to be 184 nM; in the experiment with AAV5, 25 nM; in the experiment with AAV9 it was 8.44 nM. The koff (usually the rate constant with which the complex falls apart) with AAV8 is 0.00095 s⁻¹; with AAV5, 0.00155 s⁻¹; in the experiment with AAV9, 0.00139 s⁻¹. Also, the kon (as a rule, the rate constant with which the complex forms) in the experiment with AAV8 stood at 5180 M⁻¹ s⁻¹; with AAV5, 61900 M⁻¹ s⁻¹; with AAV9 it was 165000 M⁻¹ s⁻¹.

B2: A4-070 (VHH)
VHH: VQLQESGGGLVQPGGSLRLSCAASGSIFSINSMGWYRQAPGKWRELVATVTRGGSTNYANSVKGRFTISRDNAKNTVYLQMNTLRPEDTAVYYCHLDEVRDSSWTTSNLWGQGTQVTVSS
In the experiment with AAV8, B2 registered a dissociation constant (Kd) of 20.9 nM, a koff of 0.00019 s⁻¹ and an on-rate constant (kon) of 9090 M⁻¹ s⁻¹. In the experiment with AAV5, the Kd came out at 86.8 nM, the dissociation rate constant (koff) is 0.00064 s⁻¹ and the kon amounted to 7370 M⁻¹ s⁻¹. In the experiment with AAV9, this molecule gave a Kd of 35.5 nM, a koff of 0.00012 s⁻¹ and a kon of 3380 M⁻¹ s⁻¹.

B3: A4-069 (VHH)
VHH: VQLQESGGGLVQPGGSLRLSCAASGSIFTINSMGWYRQAPGKWRELVATVTRGGNTNYANSVKGRFTISRDNAKNTVYLQMNTLRPEDTAVYYCHLDEVRDSSWTTSNLWGQGTQVTVSS
In the experiment with AAV8, B3 had a Kd of 11.6 nM, a koff of 0.00142 s⁻¹ and a kon of 122000 M⁻¹ s⁻¹. In the experiment with AAV5, the affinity, expressed as Kd, was 3.58 nM; the koff amounted to 0.0002 s⁻¹; the kon came out at 55800 M⁻¹ s⁻¹. Moreover, in the experiment with AAV9, the Kd amounted to 9.34 nM, the koff was 0.00098 s⁻¹ and the kon stood at 105000 M⁻¹ s⁻¹.

B4: A4-081 (VHH)
VHH: VQLQESGGGLVQPGGSLRLSCAASGSRFSLNTMGWYRQAPGKQRELVATVTRGGSTNYADSVKGRFTISRDNAKNTVYLQMNSLRPEDTAVYYCHVDELRESGWTTSNLWGQGTQVTVSS
In the experiment with AAV8, B4 gave a Kd of 6.05 nM, a koff of 0.00105 s⁻¹ and an on-rate constant (kon) of 174000 M⁻¹ s⁻¹. For the same molecule, in the experiment with AAV5, binding was characterised by a dissociation constant (Kd) of 12.5 nM, the koff came to 0.00146 s⁻¹ and the association rate constant (kon) worked out at 117000 M⁻¹ s⁻¹. In the experiment with AAV9, this molecule displayed a Kd of 13.7 nM, a dissociation rate constant (koff) of 0.00131 s⁻¹ and a kon of 95900 M⁻¹ s⁻¹.

B5: A4-079 (VHH)
VHH: VQLQESGGGLVQPGGSLRLSCAASGTRFSINTMGWYRQAPGKQRELVANVTPAGSTNYADSVKGRFTISRDNAKNTVYLQMNSLRPEDTAVYYCHVDELRDSSWTTSNLWGQGTQVTVSS
For B5, in the experiment with AAV8, the Kd stood at 1620 nM, the koff was 0.0019 s⁻¹ and the kon stood at 1180 M⁻¹ s⁻¹. In the experiment with AAV5, this molecule yielded a Kd of 211 nM, a koff of 0.00083 s⁻¹ and a kon of 3930 M⁻¹ s⁻¹. In the experiment with AAV9, this molecule displayed a Kd of 382 nM, a koff of 0.00051 s⁻¹ and a kon of 1340 M⁻¹ s⁻¹.

B6: A4-073 (VHH)
VHH: VQLQESGGGLVQPGGSLRLSCAASGSNFSINTMGWYRQAPGKQREMVATVTRGGSTNYGDFVKGRFTISRDNAKNTVYLQMNSLRPEDTAVYYCHVDEIRQSSWTTSNIWGQGTQVTVSS
In the experiment with AAV8, B6 came in with a Kd of 1140 nM, an off-rate constant (koff) of 0.00619 s⁻¹ and a kon of 5420 M⁻¹ s⁻¹. In the experiment with AAV5, this molecule gave a Kd of 1140 nM, a koff of 0.00862 s⁻¹ and a kon of 7530 M⁻¹ s⁻¹. For the same molecule, in the experiment with AAV9, the Kd is 1880 nM, the koff worked out at 0.00292 s⁻¹ and the kon stood at 1560 M⁻¹ s⁻¹.

B7: A4-066 (VHH)
VHH: VQLQESGGGLVQTGGSLRLSCAASGRAFSLNTMGWYRQAPGKQRELVATVTRGGSTNYAGSVKGRFTISRDNAKNTVYLQMNSLRPEDTAVYYCHVDEVRESSWTTSNLWGQGTQVTVSS
In the experiment with AAV8, B7 returned a Kd of 21.6 nM, a koff of 0.002 s⁻¹ and a kon of 92400 M⁻¹ s⁻¹. In the experiment with AAV5, this molecule returned a Kd of 20.7 nM, a koff of 0.00191 s⁻¹ and a kon of 92100 M⁻¹ s⁻¹. In the experiment with AAV9, this molecule showed a Kd of 32.8 nM, a koff of 0.00101 s⁻¹ and a kon of 30700 M⁻¹ s⁻¹.

B8: A4-080 (VHH)
VHH: VQLQESGGGLVQPGGSLRLSCAASGSRFSLNTMGWYRQAPGKQRELVATVTRGGSTNYADFVKGRFTISRDNAKNTVYLQMNSLRPEDTAVYYCHVDELRESGWTTSNLWGQGTQVTVSS
Turning to B8, in the experiment with AAV8, binding was characterised by a dissociation constant (Kd) of 191 nM, the koff was found to be 0.00138 s⁻¹ and the kon was 7220 M⁻¹ s⁻¹. In the experiment with AAV5, this molecule displayed a Kd of 20.4 nM, a koff of 0.00194 s⁻¹ and a kon of 95200 M⁻¹ s⁻¹. In addition, in the experiment with AAV9, the equilibrium dissociation constant (Kd) stood at 5.08 nM, the dissociation rate constant (koff) is 0.00074 s⁻¹ and the kon was 146000 M⁻¹ s⁻¹.

B9: A4-084 (VHH)
VHH: VQLQESGGGLVQPGGSLKLSCAASGSRFSLNTMGWYRQAPRKQREFVAAVTRGGNTNYGDFVKGRFTISRDNAKNTVYLQMNSLRPEDTAVYYCHVDELRESSWTTSNLWGQGTQVTVSS
In the experiment with AAV8, B9 returned a Kd of 12.8 nM, a koff of 0.00177 s⁻¹ and a kon of 138000 M⁻¹ s⁻¹. In the experiment with AAV5, this molecule had a Kd of 0.364 nM, a koff of 6e-05 s⁻¹ and an association rate constant (kon) of 165000 M⁻¹ s⁻¹. In the experiment with AAV9, this molecule gave a Kd of 2.28 nM, a koff of 0.0003 s⁻¹ and a kon of 132000 M⁻¹ s⁻¹.

B10: A4-082 (VHH)
VHH: VQLQESGGGLVQPGGSLRLSCAASGSRFSLNTMGWYRQAPGKQRELVATVTRGGSTKYADFVKGRFTISRDNAKNTVYLQMNSLRPEDTAVYYCHVDELRESGWTTSNLWGQGTQVTVSS
As to B10, in the experiment with AAV8, the dissociation constant Kd came out at 46.7 nM, the koff was found to be 0.00017 s⁻¹ and the kon is 3640 M⁻¹ s⁻¹. In the experiment with AAV5, binding was put at a Kd of 92.9 nM, the koff was found to be 0.0005 s⁻¹ and the kon was found to be 5380 M⁻¹ s⁻¹. In the experiment with AAV9, binding was characterised by a dissociation constant (Kd) of 122 nM, the koff was 0.0004 s⁻¹ and the kon came to 3290 M⁻¹ s⁻¹.

B11: A4-078 (VHH)
VHH: VQLQESGGGLVQPGGSLRLSCLASGTMFSLNTMGWYRQAPGKQRELVATVTRGGSTNYADFVKGRFTISRDNAKNTVYLQMNSLRPEDTAVYYCHVDEVRDSSWTTSNLWGQGTQVTVSS
For B11, the Kd with AAV8 is 61.6 nM; with AAV5 it was 52.7 nM; with AAV9, 215 nM. In addition, the off-rate (koff) in the experiment with AAV8 was 0.006 s⁻¹; in the experiment with AAV5, 0.00932 s⁻¹; in the experiment with AAV9, 0.00618 s⁻¹. Moreover, the kon with AAV8 came out at 97500 M⁻¹ s⁻¹; in the experiment with AAV5, 177000 M⁻¹ s⁻¹; with AAV9, 28800 M⁻¹ s⁻¹.

B12: A4-075 (VHH)
VHH: VQLQESGGGLVQSGGSLRLSCAASGSMFSLNTMGWYRQAPGKQRELVATITRGGGTNYADSVKGRFTISRDNAKNTVYLQMNSLRPEDTAVYYCHVDELRQSSWTTSNLWGQGTQVTVSS
Consider B12, for which, in the experiment with AAV8, the Kd stood at 9.57 nM, the dissociation rate constant (koff) turned out to be 0.00067 s⁻¹ and the kon came to 70000 M⁻¹ s⁻¹. In the experiment with AAV5, the Kd was 28.9 nM, the koff was 0.00086 s⁻¹ and the kon is 29800 M⁻¹ s⁻¹. Also, in the experiment with AAV9, binding was characterised by a dissociation constant (Kd) of 9.74 nM, the koff worked out at 0.00099 s⁻¹ and the kon was 102000 M⁻¹ s⁻¹.
